Reference: IntAct's records for PubMed 17341134

Target: cdk5_rat Cdk5 (UniProt Q03114)

| Substance | effect of a mutation on the interaction |
| --- | --- |
| BDNF/NT-3 growth factors receptor (Rattus norvegicus (Rat)), Q63604 T489A | decreasing interaction |
| BDNF/NT-3 growth factors receptor (Rattus norvegicus (Rat)), Q63604 S478A | decreasing interaction |
